These results are taken from PMC4029802, “PKCε Promotes HuD-Mediated Neprilysin mRNA Stability and Enhances Neprilysin-Induced Aβ Degradation in Brain Neurons”.

This data set addresses HuD (UniProt P26378 1-385). The data set can be described thus: EMSA; 2 uM HuD, 125 nM probe; complex specificity confirmed with unlabeled competitor oligoriboprobe; 10 mM HEPES pH 7.3, 20 mM KCl, 1 mM MgCl2, 1 mM DTT, 5% glycerol, 2 ug/ml tRNA, 30 min, room temperature; 6% native PAGE, 0.5X TBE. Particulars: protein: commercial; label: 3'-biotin.

Sequence of HuD (P26378 whole entry): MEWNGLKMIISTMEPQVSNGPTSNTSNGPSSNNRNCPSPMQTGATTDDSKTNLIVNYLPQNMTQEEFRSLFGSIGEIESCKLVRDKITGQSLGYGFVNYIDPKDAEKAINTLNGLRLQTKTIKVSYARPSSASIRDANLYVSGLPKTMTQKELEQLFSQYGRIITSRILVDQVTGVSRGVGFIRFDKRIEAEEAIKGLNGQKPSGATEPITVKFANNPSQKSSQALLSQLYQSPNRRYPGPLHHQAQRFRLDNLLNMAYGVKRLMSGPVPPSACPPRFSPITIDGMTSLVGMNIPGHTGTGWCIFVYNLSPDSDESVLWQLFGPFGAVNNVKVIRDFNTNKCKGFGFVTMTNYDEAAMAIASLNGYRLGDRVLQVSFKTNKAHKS

As to UUCUGUGAUCAUUUAUUUUAAGCACUC (ssRNA) [NEP mRNA 3'-UTR ARE oligoribonucleotide], the binding result is reported as “binds”.
